Series [1] concerns the target T1, Taq DNA polymerase (Thermus aquaticus, UniProt P19821). Kind of series: Temperature effect on activity of modified versus unmodified Taq DNA polymerase. The following applies: FIG. 7. The series is classed as biochemical. As for the experimental part:
The activity assay for both DNA polymerases was as described in the Example 2 with the following modifications: • 1. DNA polymerization using the unmodified DNA polymerase was carried out in the buffer of the following composition: 10 mM Tris-HCl (pH 8.8 at 25° C.), 50 mM KCl, 1.5 mM MgCl2, and 0.08% Nonidet P40. • 2. DNA polymerization using the modified DNA polymerase was carried out in the buffer of the following composition: 20 mM Tris-HCl (pH 8.3 at 25° C.), 20 mM KCl, 5 mM (NH4)2SO4, and 1.5 mM MgCl2.
Enzyme activities at different temperatures were normalized to the activity of the unmodified Taq DNA polymerase at 70° C.

Series [2] addresses T1, Taq DNA polymerase. Put plainly: Polymerase activity assay: incorporation of [3H]-dTTP into the polynucleotide adsorbed on DE-81 in 30 min at 70° C. The series is classed as biochemical. As to conditions: for Activity at 70° C. (%) After 10 min. preheating at 95° C. / Activity at 70° C. (%) Without preheating at 95° C.: aqueous solution. The protocol:
The measure of the enzyme activity was incorporation of [^3H]-dTTP into polynucleotide fraction. One unit of polymerase activity is defined as the enzyme amount which incorporates 10 nmoles of deoxyribonucleotides into the polynucleotide adsorbed on DE-81 in 30 min at 70° C.
For activity assays, Taq DNA polymerase was diluted up to 4 u/ml with the dilution buffer of the following composition: 20 mM Tris-HCl (pH 8.8 at 25° C.), 1 mM EDTA, 1 mM DTT, and BSA (0.1 mg/ml). Reactions were carried out at 70° C. for 30 min with 5 μl of the diluted enzyme in 50 μl of the reaction buffer of the following composition: 67 mM Tris-HCl (pH 8.8 at 25° C.), 50 mM NaCl, 6.7 mM MgCl2, 1 mM DTT, and BSA (0.1 mg/ml). The reaction buffer was supplemented with 0.2 mM dNTP, [3H]-dTTP (0.4 MBq/ml) and 0.75 mM activated DNA from calf thymus.
Activity of the modified enzymes was measured either with the pre-incubation step, or without it, for 10 min at 95° C. in the pre-heating buffer of the following composition: 20 mM Tris-HCl (pH 8.25 at 25° C.), 100 mM KCl, 2 mM MgCl2, 0.5% Tween 20, 0.5% Nonidet P40, and 16% glycerol.
Aliquots (35 μl) of the enzyme solution were mixed with 2.25 μl aliquots of the N-ethoxycarbonyl-2,3-dimethylmaleinimide solutions described above resulting in the following molar ratios of Taq DNA polymerase to N-ethoxycarbonyl-2,3-dimethylmaleinimide: 1/1280 1/640, 1/320, 1/160, 1/110, 1/80, 1/40. The mixtures were incubated for 20 hours at 4° C. to modify the Taq DNA polymerase. Control samples, in which the enzyme was left unmodified (e.g., the ratio was 1/0), were obtained by mixing the Taq DNA polymerase with a 2.25 μl aliquot of DMF. These control samples were incubated under the same conditions as the modified ones.
The samples of the unmodified Taq DNA polymerase and the modified Taq DNA polymerases were diluted 250-fold in the pre-heating buffer (see Example 2) and activities of the modified enzyme were measured both before heat-reactivation and after it, as described in the Example 2. Activities of both inactivated and heat-reactivated DNA polymerases were determined as described in the Example 2, and the data were normalized to activity of the unmodified Taq DNA polymerase
Aliquots (20.6 μl) of the diluted enzyme solution were mixed with 1 μl of N-isobutoxycarbonyl-2,3-dimethylmaleinimide solutions described above resulting in different molar ratios of Taq DNA polymerase to N-isobutoxycarbonyl-2,3-dimethylmaleinimide (1/320, 1/160, 1/80 and 1/40). The mixtures were incubated 20 hours at 4° C. to modify the Taq DNA polymerase. Control samples, in which the enzyme was left unmodified (e.g., the ratio was 1/0), were obtained by mixing the Taq DNA polymerase with a 1 μl aliquot of DMF. These control samples were incubated under the same conditions as the modified ones. The heat-reactivation of the modified enzymes was performed as described in the Example 3.

Where [3] appears, read: molar ratio Taq DNA polymerase/N-etoxycarbonyl-2,3-dimethylmaleinimide 1/80.
[4] abbreviates: molar ratio Taq DNA polymerase/N-etoxycarbonyl-2,3-dimethylmaleinimide 1/110.
Setting [5] is: molar ratio Taq DNA polymerase/N-etoxycarbonyl-2,3-dimethylmaleinimide 1/160.
Where [6] appears, read: molar ratio Taq DNA polymerase/N-etoxycarbonyl-2,3-dimethylmaleinimide 1/320.
The mark [7] stands for this setting: molar ratio Taq DNA polymerase/N-etoxycarbonyl-2,3-dimethylmaleinimide 1/640.
Setting [8] is: molar ratio Taq DNA polymerase/N-etoxycarbonyl-2,3-dimethylmaleinimide 1/1280.

For orientation: residual activity means what remains of the control signal, in per cent. A lower residual activity goes with a large loss of activity.

T1 sequence (P19821 whole entry): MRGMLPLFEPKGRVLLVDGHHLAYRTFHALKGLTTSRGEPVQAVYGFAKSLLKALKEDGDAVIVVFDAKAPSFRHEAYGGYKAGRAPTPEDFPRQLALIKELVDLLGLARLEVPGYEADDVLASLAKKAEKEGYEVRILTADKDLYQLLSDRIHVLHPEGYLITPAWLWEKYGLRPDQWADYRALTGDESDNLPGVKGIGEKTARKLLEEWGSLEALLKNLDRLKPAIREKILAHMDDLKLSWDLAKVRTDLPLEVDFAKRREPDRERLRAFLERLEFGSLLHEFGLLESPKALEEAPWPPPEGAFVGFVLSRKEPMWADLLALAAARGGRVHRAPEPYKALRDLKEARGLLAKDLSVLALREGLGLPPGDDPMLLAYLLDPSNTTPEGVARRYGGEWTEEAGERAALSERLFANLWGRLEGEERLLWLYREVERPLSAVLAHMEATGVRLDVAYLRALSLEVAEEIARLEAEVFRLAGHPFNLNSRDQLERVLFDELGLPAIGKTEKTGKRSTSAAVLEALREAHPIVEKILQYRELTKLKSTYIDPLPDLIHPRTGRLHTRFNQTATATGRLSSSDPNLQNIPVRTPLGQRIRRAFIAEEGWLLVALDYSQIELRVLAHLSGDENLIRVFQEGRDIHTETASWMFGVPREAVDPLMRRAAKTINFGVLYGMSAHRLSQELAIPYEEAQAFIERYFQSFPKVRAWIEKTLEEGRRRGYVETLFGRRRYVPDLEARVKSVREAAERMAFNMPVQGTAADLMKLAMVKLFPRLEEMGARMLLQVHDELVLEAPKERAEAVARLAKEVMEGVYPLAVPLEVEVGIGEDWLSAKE

As to “Taq DNA polymerase modified with N-etoxycarbonyl-2,3-dimethylmaleinimide: Recombinant Taq DNA polymerase reversibly inactivated by reaction with N-ethoxycarbonyl-2,3-dimethylmaleinimide in aqueous solution (preferred molar ratio 1/110)”, the “residual activity at 70° C.” value in the series with Taq DNA polymerase [1] (70° C., normalized to unmodified Taq DNA polymerase at 70° C.) is roughly 20%. In addition, the “activity at different temperatures up to 50° C.” value in the series with Taq DNA polymerase [1] (up to 50° C., without reactivation) is “practically inactive”. Besides, the “restoration of the enzyme activity after incubation for 10 min at 94° C.” value with Taq DNA polymerase [2] (incubation 10 min at 94° C.) is on record as “almost in the complete restoration of the enzyme activity”. The “Activity at 70° C. (%) After 10 min. preheating at 95° C.” value with Taq DNA polymerase [2] (molar ratio Taq DNA polymerase/N-etoxycarbonyl-2,3-dimethylmaleinimide 1/40) is on record as roughly 100%; with Taq DNA polymerase [2] (setting [3]), roughly 90%; with Taq DNA polymerase [2] (setting [4]), roughly 100%; in the series with Taq DNA polymerase [2] (setting [5]) it was roughly 90%; with Taq DNA polymerase [2] (setting [6]), roughly 90%; with Taq DNA polymerase [2] (setting [7]), roughly 50%. In the series with Taq DNA polymerase [2] (setting [8]), the “Activity at 70° C. (%) After 10 min. preheating at 95° C.” value is roughly 80%. Besides, the “Activity at 70° C. (%) Without preheating at 95° C.” value was roughly 30% with Taq DNA polymerase [2] (molar ratio Taq DNA polymerase/N-etoxycarbonyl-2,3-dimethylmaleinimide 1/40, normalized to unmodified enzyme); roughly 20% with Taq DNA polymerase [2] (setting [3]); roughly 20% with Taq DNA polymerase [2] (setting [4]); roughly 20% with Taq DNA polymerase [2] (setting [5]); roughly 30% in the series with Taq DNA polymerase [2] (setting [6]); roughly 40% with Taq DNA polymerase [2] (setting [7]). Also, the “Activity at 70° C. (%) Without preheating at 95° C.” value in the series with Taq DNA polymerase [2] (setting [8]) is roughly 90%. Also, the “specific activity retained at 70° C. temperature without preheating” value with Taq DNA polymerase [2] (several independent experiments, preferred modification (N-ethoxycarbonyl-2,3-dimethylmaleinimide, aqueous, 1/110)) was 21±6%.

Values taken from patent publication US9273304B2, “Inactivation method” (Thermo Fisher Scientific Baltics UAB, priority 2006, dated 2016).
